Some results are limits rather than exact numbers.

Assay [1] addresses Thiomicrospira Cas2 (Thiomicrospira). The assay is described as follows: cryo-EM structure; 50 uM Cas6-RT-Cas1, 50 uM Cas2 and 12.5 uM half-site DNA substrate dialysed into 10 mM HEPES pH 7.5, 5 mM EDTA, 500 mM KCl, 0.5 mM TCEP, 0.5% glycerol; purified over Superose 6 Increase; single particle cryo-EM; no density seen for the DNA.
The target of assay [2] is Thiomicrospira Cas6-RT-Cas1 RT-K574A mutant (Thiomicrospira).
Assay [3] has as its target Thiomicrospira Cas6-RT-Cas1 fusion protein (Thiomicrospira). As to the kind of experiment: cryo-EM structure; 50 uM Cas6-RT-Cas1, 50 uM Cas2 and 12.5 uM half-site DNA substrate dialysed into 10 mM HEPES pH 7.5, 5 mM EDTA, 500 mM KCl, 0.5 mM TCEP, 0.5% glycerol; purified over Superose 6 Increase; single particle cryo-EM; no density seen for the DNA.

Thiomicrospira Cas2 (natural protein) came in with a stoichiometry N in assay [1] of 2. As for “Thiomicrospira Cas6-RT-Cas1 RT-K574A mutant (enzyme)”, the ligation of ssRNA protospacer into pCRISPR by the mutant Cas6-RT-Cas1—Cas2 complex relative to WT (RT-helix of one protomer with Cas1a of another) in assay [2] is > 80 % reduction.

As to “Thiomicrospira Cas6-RT-Cas1 fusion protein (enzyme)”, the stoichiometry N in assay [3] amounted to 2.

(Values after paper PMC8102632.)
